Here are results for five molecules from patent US20230272086A1 (CHIA TAI TIANQING PHARMACEUTICAL GROUP, published 2023).

The target of assay [1] is T1, IL1R8/IL1RAPL1 (Sino biological, 10177-H08H) (UniProt Q9NZN1 19-357).
T1 construct: Bought protein
T1 sequence (looked up): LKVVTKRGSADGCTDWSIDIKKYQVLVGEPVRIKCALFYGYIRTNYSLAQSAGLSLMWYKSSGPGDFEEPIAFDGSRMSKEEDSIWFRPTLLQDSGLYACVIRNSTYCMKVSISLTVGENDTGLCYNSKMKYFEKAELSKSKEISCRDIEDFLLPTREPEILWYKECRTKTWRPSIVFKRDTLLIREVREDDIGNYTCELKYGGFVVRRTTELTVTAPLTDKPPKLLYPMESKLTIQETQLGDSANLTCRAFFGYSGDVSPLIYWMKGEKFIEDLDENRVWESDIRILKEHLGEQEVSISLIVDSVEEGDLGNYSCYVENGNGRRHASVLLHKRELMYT
Kind of assay: ELISA, plate coated with 2 µg/mL receptor. The method, then: The anti-ST2 antibodies were diluted with PBS buffer to a concentration of 1.5 mg/mL. After being treated at 72° C. for 5 min, the samples were assayed by ELISA for their binding activity for an antigen The ELISA procedure is as follows: A 96-well plate was coated with 2 µg/mL hST2-ECD-mFc as the antigen at 100 µL/well and incubated at 4° C. overnight. After the antigen not adsorbed was well washed off, the non-specific binding sites were blocked with a blocking buffer (PBST containing 1% bovine serum albumin). After the plate was washed three times with a washing buffer (PBST, PBS containing 0.05% (v/v) Tween 20), the anti-ST2 antibodies (serially diluted 3-fold from an initial concentration of 1.5 µg/mL to 8 concentrations) were added at 100 µL/well, and the plate was incubated at 37° C. for 1 h. […] After the plate was incubated at room temperature for 5 min, a stop solution (2 N H₂SO₄) was added to stop the reactions. The signals were read at 450 nm using a plate reader (PE, Envision). The data were analyzed using GraphPad Prism5, and the EC₅₀ values were calculated.
ST2 belongs to the IL1R receptor family. The cross-reactivity of the anti-ST2 antibodies with the IL1R family receptors was determined by ELISA. The IL1R family receptors include IL1R⅟CD121a (Sino biological, 10126-H08H), IL1R2/CD121b (Sino biological, 10111-H08H), IL1R3/IL1RAP (Sino biological, 10121-H08H), IL1R7/IL-18RAcP (Sino biological, 10176-H08H), IL1R8/IL1RAPL1 (Sino biological, 10177-H08H), and IL1R9/IL1RAPL2 (Sino biological, 10156-H08H). ELISA assays were performed using the proteins described above as antigens (2 µg/mL). See Example 13 for the specific ELISA procedure. No binding means that the antibody remains unbound to the antigen when at the highest concentration.

Assay [2] addresses T2, human ST2 (hST2, Interleukin-1 receptor-like 1 isoform A) on cells (human, UniProt Q01638 19-556).
T2 sequence: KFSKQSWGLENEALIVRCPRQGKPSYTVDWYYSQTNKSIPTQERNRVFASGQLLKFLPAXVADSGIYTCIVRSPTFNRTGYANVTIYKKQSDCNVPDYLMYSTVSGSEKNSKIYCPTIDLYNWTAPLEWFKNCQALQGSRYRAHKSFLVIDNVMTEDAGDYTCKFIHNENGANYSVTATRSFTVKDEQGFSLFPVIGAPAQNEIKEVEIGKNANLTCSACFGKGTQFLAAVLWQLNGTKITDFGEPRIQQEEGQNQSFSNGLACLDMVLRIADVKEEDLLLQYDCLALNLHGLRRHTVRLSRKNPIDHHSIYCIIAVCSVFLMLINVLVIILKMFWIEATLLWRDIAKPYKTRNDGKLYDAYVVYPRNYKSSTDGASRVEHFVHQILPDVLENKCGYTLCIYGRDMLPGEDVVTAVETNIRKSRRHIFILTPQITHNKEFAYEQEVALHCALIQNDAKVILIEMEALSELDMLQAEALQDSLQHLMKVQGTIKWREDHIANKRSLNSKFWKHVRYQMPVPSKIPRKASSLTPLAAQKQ
Nature of the assay: cell-based or functional assay.

Assay [3] has as its target T3, cynomolgus monkey ST2 antigen (Cyno-ST2-his, Sino biological, 90915-C08H) (cynomolgus monkey, UniProt Q01638 19-328 (human entry)).
T3 construct: Bought protein; not shown: his tag
T3 chain: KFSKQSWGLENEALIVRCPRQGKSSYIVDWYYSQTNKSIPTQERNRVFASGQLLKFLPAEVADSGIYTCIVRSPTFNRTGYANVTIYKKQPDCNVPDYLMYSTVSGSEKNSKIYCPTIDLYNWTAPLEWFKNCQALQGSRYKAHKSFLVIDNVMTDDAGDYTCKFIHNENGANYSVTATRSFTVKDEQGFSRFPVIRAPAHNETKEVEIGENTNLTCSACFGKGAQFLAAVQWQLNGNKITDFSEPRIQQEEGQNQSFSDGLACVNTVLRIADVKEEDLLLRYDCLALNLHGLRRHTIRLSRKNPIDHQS
Kind of assay: ELISA, plate coated with Cyno-ST2-his. The procedure:
ST2 binding screening and analysis of antibodies were performed by ELISA using hST2-ECD-mFc (for assays of chimeric and humanized antibodies), hST2-ECD-hFc protein (for assays of hybridoma antibodies) and Cyno-ST2-his (Sino biological, 90915-C08H) as antigens. A high-adsorption 96-well plate (Costar, 9018) was coated with 2 µg/mL hST2-ECD-mFc or Cyno-ST2-his antigen at 100 µL/well and incubated overnight at 4° C. After the antigen not adsorbed was well washed off, the non-specific binding sites were blocked with a blocking buffer (PBS containing 2% bovine serum albumin). After the plate was washed three times with a washing buffer (PBS containing 0.05% (v/v) Tween 20), the anti-ST2 antibodies (serially diluted 3-fold from an initial concentration of 10 nM to 8 concentrations: 3.333 nM, 1.111 nM, 0.370 nM, 0.123 nM, 0.041 nM, 0.014 nM, 0.005 nM, and 0.002 nM) were added at 100 µL/well, and the plate was incubated at room temperature for 1 h. After the plate was washed with the washing buffer, a horseradish peroxidase (HRP)-conjugated secondary antibody was added, and the plate was incubated for another 60 min. After the plate was washed with the washing buffer, the substrate TMB solution (Thermo, 00-4201-56) was added at 100 µL/well, and the plate was incubated at room temperature for 2 min. A stop solution (2 N H₂SO₄) was added at 100 µL/well to terminate the reactions. Colorimetric signals were generated and read at 450 nm using a microplate reader (PE, Envision). The data were analyzed using GraphPad Prism5, and the EC₅₀ values were calculated.
The humanized antibodies hz31C81-1.1 (the amino acid sequence of the heavy chain set forth in SEQ ID NO: 75 and the amino acid sequence of the light chain set forth in SEQ ID NO: 81) and hz31C8-1.2 (the amino acid sequence of the heavy chain set forth in SEQ ID NO: 77 and the amino acid sequence of the light chain set forth in SEQ ID NO: 81) were subjected to affinity, binding, blocking and cell function analyses using the methods described in Example 4, Example 5, Example 6, Example 7, Example 8, Example 9 and Example 10.
(In general: In an ELISA, binding on a coated surface is turned into a signal by an enzyme label.)

In general, EC50 refers to the concentration at which the effect is half-maximal.

B1: Chimeric 31C8 (antibody, human IgG2, kappa, V domains shown)
VH: QVQLQQSGPELVRPGASVTLSCKASGYIFIDSEMHWVKQTPVHGLEWIGAIDPETGDTVYNQKFKGKATLTADKSSSTASMELSSLTSEDSAVYYCTGSTTDYYFAYWGQGTTLTVSS
VL: DIVMTQAAFSNPVTLGTSASISCRSSKSLLHSNGIIYLYWYLQKPGQSPQLLIYQMSNLASGVPDRFSSSGSGTDFTLRISRVEAEDVGVYYCAQNLELPFTFGSGTKLEIKR
notes: also called xi31C8
Regarding B1, the binding result in assay [1] is listed as “no binding”. In addition, the “IC50, blocking of the IL33/ST2-induced IL5 secretion on CD4+ T cells (hIL33 plus IL2 co-stimulation)” value (“IC50, blocking” below) in assay [2] turned out to be 440 pM. The molecule further yielded an EC50 in assay [3] of 69 pM.

B2: Humanized 31C8-1.1 (antibody, human IgG2, kappa, V domains shown)
VH: EVQLVQSGAEVKKPGATVKISCKASGYIFIDSEMHWVQQAPGKGLEWMGAIDPETGDTVYAEKFQGRVTITADKSSSTAYMELSSLRSEDTAVYYCTGSTTDYYFAYWGQGTLVTVSS
VL: DIQMTQSPSSLSASVGDRVTITCRSSKSLLHSNGIIYLYWYQQKPGKAPKLLIYQLSNLASGVPSRFSSSGSGTDFTLTISSLQPEDFATYYCAQNLELPFTFGQGTKVEIKR
notes: also called hz31C8-1.1; hz31C81-1.1
As to B2, the binding result in assay [1] is given as “no binding”. Further, in assay [2], the “IC50, blocking” value worked out at 462 pM. Besides, the concentration for a half-maximal effect (EC50) in assay [3] stood at 71.6 pM.

B3: Humanized 31C8-1.2 (antibody, human IgG2, kappa, V domains shown)
VH: QVQLVQSGAKVKKPGATVKISCKASGYIFIDSEMHWVQQAPGKGLEWMGAIDPETGDTVYAKKFKGRVTITADKSSSTAYMELSSLRSEDTAVYYCTGSTTDYYFAYWGQGTLVTVSS
VL: DIQMTQSPSSLSASVGDRVTITCRSSKSLLHSNGIIYLYWYQQKPGKAPKLLIYQLSNLASGVPSRFSSSGSGTDFTLTISSLQPEDFATYYCAQNLELPFTFGQGTKVEIKR
notes: also called hz31C8-1.2; hz31C81-1.2
Take B3: in assay [1], the binding result is given as “no binding”. In addition, in assay [2], the “IC50, blocking” value was 366 pM. Also, in assay [3], the concentration for a half-maximal effect (EC50) amounted to 74.6 pM.

B4: GSK3772847 (antibody STLM208 in CN104411333, prepared in-house) (antibody, human IgG2, kappa, V domains shown)
VH: EVQLLESGGGLVQPGGSLRLSCAASGFTFSIYDMIWVRQAPGKGLEWVSSIRGEGGGTYYADSVKGRFTISRDNSKNTLYLQMNSLRAEDTAVYYCARDPWSTEGSFFVLDYWGQGTLVTVSS
VL: EIVLTQSPATLSLSPGERATLSCRASQSVDDDLAWYQQKPGQAPRLLIYDASNRATGIPARFSGSGSGTDFTLTISSLEPEDFAVYYCQQYITAPLTFGQGTKVEIKR
notes: Control anti-ST2 antibody
In the case of B4, the binding result in assay [1] was “no binding”. In addition, the “IC50, blocking” value in assay [2] amounted to 794 pM. In assay [3], this molecule returned an EC50 of 242 pM.

B5: RG6149 (antibody Ab2 in CN104334582, prepared in-house) (antibody, human IgG2, kappa, V domains shown)
VH: EVQLVQSGAEVKKPGESLKISCKGSGYSFTNYWIGWVRQMPGKGLEWMGIIYPGNSDTRFSPSFQGQVTISADKSITTAYLQWSSLKASDTAMYYCARHGTSSDYYGLDVWGQGTTVTVSS
VL: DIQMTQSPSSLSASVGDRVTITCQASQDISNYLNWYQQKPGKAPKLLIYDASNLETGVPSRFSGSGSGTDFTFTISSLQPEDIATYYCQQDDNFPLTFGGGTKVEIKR
notes: Control anti-ST2 antibody
Consider B5, for which the binding result in assay [1] was “no binding”. Also, in assay [2], the “IC50, blocking” value was 1820 pM. In addition, it took 178 pM to reach a half-maximal effect in assay [3] (EC50).
